Data on 1 molecule can be found in paper PMC2396426 (Nucleic Acids Research, 2008).

The assay concerns the target T1, yeast general transcription factor TFIIB (yeast, UniProt P29055 1-345).
T1 sequence (looked up): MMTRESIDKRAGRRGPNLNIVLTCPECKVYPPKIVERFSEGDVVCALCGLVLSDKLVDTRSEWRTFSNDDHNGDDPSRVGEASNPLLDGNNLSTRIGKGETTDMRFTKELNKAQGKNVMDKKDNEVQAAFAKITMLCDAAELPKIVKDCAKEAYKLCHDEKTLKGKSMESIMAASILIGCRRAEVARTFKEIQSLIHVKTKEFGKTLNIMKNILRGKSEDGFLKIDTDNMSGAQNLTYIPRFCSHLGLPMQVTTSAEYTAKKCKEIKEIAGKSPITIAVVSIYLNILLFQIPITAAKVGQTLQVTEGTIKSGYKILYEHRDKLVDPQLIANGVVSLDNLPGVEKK
Kind of assay: native gel or EMSA. In general terms: Mobility shift assays separate free from complexed probe on a gel.

B1: yeast TATA-binding protein (TBP) (natural protein, UniProt P13393 1-240, looked up)
chain: MADEERLKEFKEANKIVFDPNTRQVWENQNRDGTKPATTFQSEEDIKRAAPESEKDTSATSGIVPTLQNIVATVTLGCRLDLKTVALHARNAEYNPKRFAAVIMRIREPKTTALIFASGKMVVTGAKSEDDSKLASRKYARIIQKIGFAAKFTDFKIQNIVGSCDVKFPIRLEGLAFSHGTFSSYEPELFPGLIYRMVKPKIVLLIFVSGKIVLTGAKQREEIYQAFEAIYPVLSEFRKM
As for B1, the binding result is reported as “binds”.
